Data: publication PMC10249625 (Biochemistry, 2023)
One block for each binder: values may come before it.

Tests used:
[1] = target: hBIMEL (141–166) BH3 peptide (human); assay: native MS
[2] = target: hBIMEL (141–166) BH3 peptide (human); assay: HDX-MS

- binding result [1]: binds
B1: Bcl-2 chimera (1–34 Bcl-2, 35–50 Bcl-XL, 93–207 Bcl-2) with a C-terminal 6His tag (domain or fragment)
chain: MAHAGRTGYDNREIVMKYIHYKLSQRGYEWDAGDDVEENRTEAPEGTESEPVVHLTLRQAGDDFSRRYRRDFAEMSSQLHLTPFTARGRFATVVEELFRDGVNWGRIVAFFEFGGVMCVESVNREMSPLVDNIALWMTEYLNRHLHTWIQDNGGWDAFVELYGPSMR

- binding result [2]: binds
B2: Mcl-1 (172–327), untagged after thrombin cleavage of GST (domain or fragment, human (from the printed UniProt entry))
chain: GSGSDELYRQSLEIISRYLREQATGAKDTKPMGRSGATSRKALETLRRVGDGVQRNHETAFQGMLRKLDIKNEDDVKSLSRVMIHVFSDGVTNWGRIVTLISFGAFVAKHLKTINQESCIEPLAESITDVLVRTKRDWLVKQRGWDGFVEFFHVEDLEGG
